The values below come from US20020182180A1.

For assay [1], the target named is V3 loop-deleted (Δ297-329) HIV-1IIIB env glycoprotein expressed by vv-7ΔV3 (HIV-1 IIIB isolate) (UniProt P04578). The experiment in a line: cell-based or functional assay.
Assay [2] addresses CD4 receptor on CD4+ cells (SupT-1 cells; IL-2-dependent CD4+ T lymphocytes) (UniProt P01730). Description: cell-based or functional assay.

“F105, human mAb directed against a discontinuous gp120 epitope overlapping the CD4 binding site (antibody)” returned an ADCC specific lysis (51Cr release, E:T 50:1) in assay [1] of less than 4%.

For the substance “full-length (wild-type) HIV-1IIIB env glycoprotein expressed by vv-WTP-2 (from UniProt P04578 33-856)”, in assay [2], the apoptotic cells (sub-G1 DNA content, PI staining) in infected SupT-1 cells, 16 hr stood at 20% and the syncytium formation in infected SupT-1 cells is 80 to 90%.

As to “V3 loop-deleted (Δ297-329) HIV-1IIIB env glycoprotein expressed by vv-7ΔV3 (from UniProt P04578 33-296; P04578 330-856)”, the activation-induced apoptosis of CD4+ T lymphocytes (fragmented DNA, PI, 72 hrs) in assay [2] was less than 7%.
